Laboratory results as given in article doi:10.1101/2021.02.09.430442 (bioRxiv, 2021).

Experiments:
[1] = biological target: T1, Recombinant human Syntaxin6 (human, UniProt O43752 1-255); assay: pull-down
T1 sequence: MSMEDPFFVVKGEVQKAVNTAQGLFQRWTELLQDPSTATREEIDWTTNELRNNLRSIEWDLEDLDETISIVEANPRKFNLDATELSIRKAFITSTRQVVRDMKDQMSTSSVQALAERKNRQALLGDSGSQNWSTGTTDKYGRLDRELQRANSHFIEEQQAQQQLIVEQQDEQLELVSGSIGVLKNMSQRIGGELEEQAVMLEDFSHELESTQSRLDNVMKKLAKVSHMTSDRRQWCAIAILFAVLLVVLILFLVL

Recombinant human Vti1a = biological target: T2, Recombinant human Vti1a (human, UniProt Q96AJ9 1-217); assay: pull-down
T2 sequence (looked up): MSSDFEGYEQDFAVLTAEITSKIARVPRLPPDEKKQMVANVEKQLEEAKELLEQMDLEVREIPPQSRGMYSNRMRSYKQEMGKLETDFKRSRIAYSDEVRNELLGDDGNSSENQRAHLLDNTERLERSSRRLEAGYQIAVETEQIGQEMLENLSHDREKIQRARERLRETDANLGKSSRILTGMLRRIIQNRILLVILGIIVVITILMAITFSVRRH

B1: GST-VAMP4 (natural protein, human, UniProt O75379 1-141, looked up)
chain: MPPKFKRHLNDDDVTGSVKSERRNLLEDDSDEEEDFFLRGPSGPRFGPRNDKIKHVQNQVDEVIDVMQENITKVIERGERLDELQDKSESLSDNATAFSNRSKQLRRQMWWRGCKIKAIMALVAAILLLVIIILIVMKYRT
Which results are given for B1?
binding result [1]: binds; binding result (Recombinant human Vti1a): binds
